Experimental data published in the supplement of paper PMC9170038.

System: MS2 coat protein
Assay: apparent KD of MS2 coat protein; higher = weaker reporter binding
Conditions: Eterna round: R107; input ligand: theophylline 20 uM
In short: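 In 100 mM Tris-HCl pH 7.5 with 80 mM KCl and 4 mM MgCl2, and without or with constant ligand, SNAP-549-labelled MS2 coat protein was titrated in twofold steps from 0.7 or 1.5 nM to 3 µM. Per-step times went from 0.8–1.5 h down to 10–20 min. The RNA switches were transcribed on-chip from Illumina sequencing clusters, and apparent KD is the per-design median of normalised cluster binding-curve fits.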

Sequence	apparent KD of MS2 coat protein [nM]
AACUACUCGAGGUGAUCCUACGAGUGGCAACGAGGACCGGUACGGCCGCCACUCGAAUAAACAUGAGGAUCACCCAUGUACAAAU [T''-M'-T'-T-MS2 - Design 12]	259
CCUCCUUGUACGGCCGCCACUGCAUCUCUGGAUACUCCGAUAAUACAUGAGGAUCACCCAUGUUACAGGACCGGGUAUAUAUUAC [theeternabot_sameState_MS2_Trp_B_19]	18.7
GGAUAGGACAGAAGGAGCGACAUGGCAGAAACUGCAAUCCUCCUACACGAGGAUCACCCGUGUCAGGUAGGUCGCUGUCCUAUCG [ArgXB 12 #Zipper #MS2Left #StaticStem #Blueprint]	34.8
CUAUCCUUGCCGGAUGAAGGACACUGAGAAGGAGCGCGGUAAUCCGCAGGUAGGUCGCUCAGGAGUACAUGAGGAUCACCCAUGU [Xeonrave]	26.9
CUGACGUAGGAAGAUAUCUGGAACAAGGAUACCAGUAAACCAACAUACCCUUGGCAGCCUAAAACAUGAGGAUCACCCAUGUAAU [theeternabot_exclusion_MS2_Theo_A_26]	14.2
ACGAACGCACCUGAGGAUCACCCGGGUGAUACCAGCCUGGAAACAGGCCCUUGGCAGCACCUAAAAUAAAGGUAACGUUCGAAUA [TheoAX9 #MicroSwitchBubble #AlternativeMS2]	234
CACGGAUGAGUGGAUCACCCUCAUAAUAACCGAGGACCGGUACGGCCGCCACUCGAAAACCGUGACCUGUACGAAAAGUGCAGGA	486
UGAGAUCCUCAUGAUACCAGUGUACUACAUGAGGAUCACCCAUGUAGCAACAUCUGUAGACACCCUUGGCAGCAUGAGACCACGU [Theo B SS t5]	35.2
UUCGUAUUGUCGGCCGCCACUGCAACAUGAGGAUCACCCAUGUAAAUUUGGGAGUAGUUAUAUUACAGGACCGGGACAAUAGUAA [JR_ExcTryptoB_Sub019]	113
ACGGGCAUGGCGGCCGCCACUGGUUGGCGUGCGGAUGAGGGAACAUGAGGAUCACCCAUGUUGGUUAGGACCGGGCUGGCGUCGA [kkymullin]	49.8
UCACAUGAGGAUCACCCAUGUACAGGCGAUACCAGCCGUACAUUGGGCCCUUGGCAGCGCACCGAGGACUUUUUAAGCAUCUCGG [Diatbeen]	401
AGCAGCUCGAAAGAGUUGCACUCAUGUGAAGGAGCGCCCGUUAGGGCAGGUAGGUCGCACAUGAGGAUCACCCAUGUACCUUCUA [ArgAX 20 #OpenEnded #MS2Late]	182
UUGUUGUUUGGAAGGAGCGUGUAUGAGUUAGAACAUGAGGAUCACCCAUGUUGGAUGAUAGCACAGGUAGGUCGCCGGGUGGUGG [11.Y]	18.4
CUAUAUUAUAGAAGGAGCGUCGAAAAUGGGUAAACAUGAGGAUCACCCAUGUAAAGGGAACGACAGGUAGGUCGCUAUAAUAUAG [AstromonsSSArgB#13]	201
ACAUGAGGAUCACCCAUGUUUGUUGUUCCUCGAGGACCGGUACGGCCGCCACUCGAACGAGUGGCGCGCGCGCGCGCGCGCGCGC [aMa]	36.4
GCGAUGGAGCGAAGGAGCGUGCUAGUACAUGAGGAUCACCCAUGUGAGUCGCAUCGCUAAGCACAGGUAGGUCGCGCUCCAUCGC [EAB NP+V+V2 #9]	122
UCUUUCUUUGUAGAUACCAGCGUGUUAUCUUUCUUUUGACAUGAGGAUCACCCAUGUAUAUGCCCUUGGCAGCUACAUAUUCUUU [#01 Same State - Theophylline B]	23.6
ACUUUGUCGGGUGAUACCAGCCUCGGCAAAUCUCGUGCCGAACAUGAGGAUCACCCAUGUGGCCCUUGGCAGCACAUGACAACUC [Cezara]	546
AUUAAUUGUCGUGAUACCAGACAUACAUGAGGAUCACCCAUGUUAAGUAACAUUUUUUAUGUCCCUUGGCAGCACUUUUUAAUUA [JR_Nu_SSTheophyB_Sub017]	24.8

Same assay, conditions: Eterna round: R107; input ligand: theophylline 2 mM

Sequence	apparent KD of MS2 coat protein [nM]
AAUAAAUCGCCUGAUACCAGCGCUGGCGGACAUGAGGAUCACCCAUGUGUUACAGGCGGACGCCCUUGGCAGCGGAGCGGGAUCU [U-Shape]	23
GCACAAGAUGGAAGGAGCGCUGGUAAAGGUCACAUGAGGAUCACCCAUGUGCUCCUUGCCGAGCAGGUAGGUCGCCAUCUUGUGC [SSAB NP+V+V2 #3]	13.3
AAUAAUAACUGAAGGAGCGUCUAUAUUACAUGAGGAUCACCCAUGUUUAUAUGGUAUUAUAGACAGGUAGGUCGCAGAUUUUUUA [JR_SSArginiB_Sub016]	18.6
UUGCAGAUCGGAAAGGUCCUGCUGUUCGAAGGAGCGGUAAAAGUACCAGGUAGGUCGCGAACAUGAGGAUCACCCAUGUUUGCAA [Usmaenbi]	20.2
AUGUCGUUGAAUAUAGCGGCUUGGUGUGAUACCAGAAUGAUCUAAUUCCCUUGGCAGCAUUACAUGAGGAUCACCCAUGUUCCAG [SSTheo A #21]	57.3
AACAUGAGGAUCACCCAUGUGUCCUCGAAACGAGGACCGGUACGGCCGCCACUCGAGCUAUGUUGACGAAAAGUCAGCAUAGCAA [Mat - Exclusion - Trytophan A - D13]	374
ACACAUGAGGAUCACCCAUGUAAAGUUGAAGGAGCGAUCAUUAGGUCAGGUAGGUCGCAGCACAUGAGGAUCACCCAUGUCGUGA [DOUBLE!!! :-D #2]	73.7
GUCGCUGAGGGAAGGAGCGUGAAGACAUGAGGAUCACCCAUGUAGAGGCGCCGAAGGCGUUCGCAGGUAGGUCGCCCUCAGUGAC [#1 Same State - Arginine B Attempt #22 (HarryS)]	16.7
GGUGGCGGGACUGAUACCAGCCACCACCGAUAGACCACAUGAGGAUCACCCAUGUUGGGUGGCCCUUGGCAGCAGUCUUGCGGCG [#1 Same State - Theophylline B Attempt #15 (HarryS)]	81.5
GCUCACAUGAGGAUCACCCAUGUACGUCCGCGAGGACCGGUACGGCCGCCACUCGUGUUAGCUUCAAACUUGUUAGUGUUAAACA [Atleerge]	68.4
AAUGGCCGUACCGGAAGGGUGAUCCUCAAACGAGGACCGGUACGGCCGCCACUCGAUAACAUGAGGAUCACCCAUGUAAUAAUAA [|T'-M'-Trp-Ms2|_Design13]	677
GGGCCCGGCCGAAAGGCCGGGCCCGCUGAAGGAGCGGGAAAUAACCCAGGUAGGUCGCAGAGAUCCACAUGAGGAUCACCCAUGU [#26 Exclusion - Arginine A]	68.1
UAGACGGCCGGAAGGAGCGGUACAUGAGGAUCACCCAUGUACUUCUGGGCAUCCGUAGUGUGCCAGGUAGGUCGCCGGUUGCGGG [XArg-B20]	33.1
CUAAGAGCGGCGGCCGCCACUGGUAACCAAGAGGCGGAGCCUCUGACAUGAGGAUCACCCAUGUUCAGGACCGGGUCGUCUUAGA [#07 Same State - Tryptophan B]	18.5
AACUACUCGAGGUGAUCCUACGAGUGGCAACGAGGACCGGUACGGCCGCCACUCGAAUAAACAUGAGGAUCACCCAUGUACAAAU [T''-M'-T'-T-MS2 - Design 12]	220
CCUCCUUGUACGGCCGCCACUGCAUCUCUGGAUACUCCGAUAAUACAUGAGGAUCACCCAUGUUACAGGACCGGGUAUAUAUUAC [theeternabot_sameState_MS2_Trp_B_19]	15.3
GGAUAGGACAGAAGGAGCGACAUGGCAGAAACUGCAAUCCUCCUACACGAGGAUCACCCGUGUCAGGUAGGUCGCUGUCCUAUCG [ArgXB 12 #Zipper #MS2Left #StaticStem #Blueprint]	36.9
CUAUCCUUGCCGGAUGAAGGACACUGAGAAGGAGCGCGGUAAUCCGCAGGUAGGUCGCUCAGGAGUACAUGAGGAUCACCCAUGU [Xeonrave]	23.7
ACGAACGCACCUGAGGAUCACCCGGGUGAUACCAGCCUGGAAACAGGCCCUUGGCAGCACCUAAAAUAAAGGUAACGUUCGAAUA [TheoAX9 #MicroSwitchBubble #AlternativeMS2]	590
CACGGAUGAGUGGAUCACCCUCAUAAUAACCGAGGACCGGUACGGCCGCCACUCGAAAACCGUGACCUGUACGAAAAGUGCAGGA	782
UUCGUAUUGUCGGCCGCCACUGCAACAUGAGGAUCACCCAUGUAAAUUUGGGAGUAGUUAUAUUACAGGACCGGGACAAUAGUAA [JR_ExcTryptoB_Sub019]	140
